Results on 2 substances are retold here after publication PMC1891314.

The target in assay [1] is OD_(CN54)+-Fc (outer domain of HIV-1 CN54 gp120, residues 251-481, with V295N+A394T, fused at its C terminus to the Fc domain of human IgG1) (HIV-1 CN54 | human). The experiment in a line: SDS-PAGE under non-reducing conditions; purified Fc fusion proteins under non-reducing conditions; data not shown.
Assay [2] concerns the target gp120_(CN54)+-Fc (HIV-1 CN54 gp120 with V295N+A394T, fused at its C terminus to the Fc domain of human IgG1) (HIV-1 CN54 | human). Described as above.

Take “OD_(CN54)+-Fc (outer domain of HIV-1 CN54 gp120, residues 251-481, with V295N+A394T, fused at its C terminus to the Fc domain of human IgG1) (Fc fusion)”: in assay [1], the stoichiometry N (commonly a count of units in the complex or per binding partner) was determined as 2.

For the substance “gp120_(CN54)+-Fc (HIV-1 CN54 gp120 with V295N+A394T, fused at its C terminus to the Fc domain of human IgG1) (Fc fusion)”, in assay [2], the stoichiometry N amounted to 2.
